By stoichiometry N is commonly meant the number of molecules, sites or subunits per partner or assembly.

The source of these data is article PMC11025796.

Assay [1] addresses HrGH45, endogenous glycosylated GH45 endo-1,4-β-D-glucanase from the red abalone (Haliotis rufescens) (Haliotis rufescens). Description: SEC; calibrated gel filtration on an Agilent Bio SEC-3 HPLC column; 0.1 mg/mL HrGH45 in buffer A (50 mM sodium acetate pH 6.0, 200 mM NaCl, 1 mM EDTA, 0.05% NaN3), 1 mL/min; mass in solution compared with the MALDI-TOF mass of the monomer. Background: In gel filtration, larger molecules generally elute earlier.

For assay [2] the target is unchanged. Kind of assay: zymography (SDS-PAGE without reducing agent or heating, in-gel cellulase activity); 12% SDS-PAGE gel with 0.1% (w/v) CMC in the resolving phase, sample not reduced and not heated; Triton X-100 wash, overnight at 37°C in buffer A, Congo red stain; a second gel stained with Coomassie.

Regarding “HrGH45, endogenous glycosylated GH45 endo-1,4-β-D-glucanase from the red abalone (Haliotis rufescens) (enzyme)”, the stoichiometry N in assay [1] and in assay [2] was 3 throughout.
